Results on one substance are retold here after patent publication US20250101135A1.

Assay [1] concerns the target mouse 4-1BB on activated mouse splenocytes (mouse) (UniProt P20334). Nature of the assay: flow cytometry, activated mouse splenocytes, CD8+ T cells, PE anti-human IgG Fc secondary, MFI baseline corrected.
For assay [2] the target is unchanged. Nature of the assay: flow cytometry, activated mouse splenocytes, CD4+ T cells, PE anti-human IgG Fc secondary, MFI baseline corrected.

Sequence of mouse 4-1BB on activated mouse splenocytes (mouse) (P20334 24-256): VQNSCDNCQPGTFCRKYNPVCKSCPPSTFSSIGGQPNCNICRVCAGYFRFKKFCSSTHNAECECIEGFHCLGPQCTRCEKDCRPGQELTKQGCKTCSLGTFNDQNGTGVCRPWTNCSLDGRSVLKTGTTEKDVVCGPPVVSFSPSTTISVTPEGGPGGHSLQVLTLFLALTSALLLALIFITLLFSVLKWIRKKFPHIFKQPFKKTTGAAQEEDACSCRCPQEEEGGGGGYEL

“anti-mouse CD137-specific human IgG1 P329G LALA antibody (clone Lob12.3)”: the EC50 (read off the curve) is 0.09 nM in assay [1] and 0.08 nM in assay [2].

Usually EC50 (read off the curve) stands for the concentration that produces a half-maximal response. Read a high EC50 (read off the curve) as lower potency in that assay.
